Results published in PMC11642994, “AGC family kinase of Entamoeba histolytica: Decoding the members biochemically” (PLOS Pathogens, 2024).
Where a chain is given by its changes, count along the chain named. Names may count otherwise. “Also recorded” adds a separate entry of the source. No end group written: not given here.

Key:
EhAGCK1 WT = EhAGCK1 WT (Entamoeba histolytica, UniProt C4M2W0); assay: Microscale Thermophoresis (MST), EhAGCK1 WT; format: binding
Experimental: Microscale Thermophoresis (MST) was performed in the presence of full-length and kinase-dead EhAGCK1 and EhAGCK2 proteins, along with HsGSK3, EhRhoGEF, and EhCoactosin peptide substrates. Proteins were labelled using a His-tag labelling kit, RED-tris-NTA 2nd Generation (Nano Temper Technologies, San Francisco, CA, USA). A brief labelling reaction was performed in a buffer containing (50 mM Tris-Cl pH 8, 150 mM NaCl, 1 mM β-ME and 5% glycerol) with a protein concentration of 20 nM and a molar dye: protein ratio of approximately 3:1. The mixture was kept at room temperature for 30 min, followed by centrifugation at 15000 g for 10 min at 4°C. A series of 16 1:1 dilutions were prepared using the same buffer, resulting in peptide concentrations ranging from 500 μM to […]. Following a 10 min incubation, the samples were loaded into standard monolith NT.115 capillaries from Nano Temper Technologies. […] Data from three independently pipetted measurements were analysed using MO. […]
The kinase assay data presented here are the mean ± standard error (SE) of n≥3 of three independent experiments. The Km and Vmax were determined from a direct, nonlinear fit of [V] versus [S] plots using the Michaelis-Menten equation: V=Vmax[S]/Km+[S] using the GraphPad Prism 9.0 software package (GraphPad Software Inc., CA, USA). […]

autophosphorylation = assay: ATP biotinylation kinase assay (autophosphorylation, SA-HRPO western blot); format: biochemical, Entamoeba histolytica; conditions: 4 μM kinase (EhPDK1 2 μM), 20 μM biotin-labelled ATP, 40 mM Tris-Cl pH 7.8, 10 mM MgCl2, 2 mM DTT, 30°C, 1 h
Experimental: ATP biotinylation assays were performed in the presence of 4 μM of EhAGCK1 (WT, T275D, and KDD1) and EhAGCK2 (WT, T274D, and KDD2) along with 2 μM of wild-type EhPDK1 in the presence of activation buffer 40 mM Tris-Cl pH 7.8, 10 mM MgCl2, and 2 mM DTT and incubated at 30°C for 1 h. The reaction was triggered by adding 20 μM biotin-labelled ATP (Catalogue NU-970-BIO, Jena Bioscience). 20 μl of the reaction was collected at the indicated time point and quenched by the addition of 4x SDS-loading dye. After gel electrophoresis, phosphorylated proteins were visualized by immunoblotting using HRPO-conjugated streptavidin (Invitrogen).
ATP biotinylated protein samples were separated by SDS-PAGE and then electro-transferred to PVDF membrane (Pall life sciences). The membrane was blocked overnight by 5% BSA (G-Biosciences) in TBS-T (TBS with 0.1% Tween 20) and stained with Ponceau S. This blocking process was done overnight at 4°C. The membrane was then incubated with 1:1000 dilution of HRPO-conjugated streptavidin (Invitrogen) at room temperature. Following antibody incubation, the blots were carefully cleaned with TBS-T. Band detection was carried out with a Millipore ECL kit.

HsGSK3 peptide = assay: ADP-Glo kinase activity of kinase variants with human GSK3 peptide in MgCl2 and MnCl2 buffers; format: biochemical; conditions: for kinase activity with HsGSK3 peptide in presence of Mn2+: Mn2+ present
Experimental: The phosphorylation activity of kinases was measured using the ADP-Glo kinase assay kit according to the manufacturer’s protocol with few modifications (Promega, Madison, WI, Catalogue number V6930). Assays were performed in a Corning 384-well low-volume white round bottom polystyrene NBS microplate with a total volume of 32 μl in the ratio of 1:1:2, corresponding to the kinase reaction, ADP-Glo reagent, and detection reagent, respectively. The kinase reaction was performed in an 8 μl volume containing 4 μl of purified protein kinases, 2 μl of peptide substrate, and 2 μl of ATP (Promega, Madison, WI). The working concentration of all the kinase reaction components was prepared in the standard kinase assay buffer (40 mM Tris-Cl pH 7.5, 20 mM MgCl2, 2 mM DTT). Along with other controls, only buffer-negative controls without protein kinase, substrate, and ATP were included in the kinase assay. Kinase assay reactions in each well were started immediately by adding ATP. The reactions were allowed to continue for 1 h at 30°C in the incubator chamber without shaking. The kinase assay was quenched by adding 8 μl of ADP-Glo reagent in each well before adding ADP-Glo reagent. The reaction plate was incubated for 5 min at room temperature. Termination reactions were allowed to proceed for 40 min at room temperature. ADP-Glo reagent, in addition to quenching the reaction, scavenges the unconsumed ATP from the reaction. In the final step of the ADP-Glo kinase assay, 16 μl of kinase detection reagent was added to each well and incubated for 40 min to simultaneously convert ADP to ATP and allow the newly synthesised ATP to be measured using a luciferase/luciferin reaction. The luminescent signal generated was measured using a SpectraMax i3x Multi-Mode Microplate Reader (Molecular Devices), and it was proportional to the ADP concentration produced and correlated with the kinase activity.
The kinase assay data presented here are the mean ± standard error (SE) of n≥3 of three independent experiments. The Km and Vmax were determined from a direct, nonlinear fit of [V] versus [S] plots using the Michaelis-Menten equation: V=Vmax[S]/Km+[S] using the GraphPad Prism 9.0 software package (GraphPad Software Inc., CA, USA). Additionally, the Microscale Thermophoresis (MST) experiments were conducted using the Monolith NT.11.5 instrument, with triplicate runs. Statistical comparisons were made using Student’s t-test. Differences in mean values were considered significant at *p-value≤0.05, **p-value≤0.01, ***p-value≤0.001, ****p-value≤0.0001.

[1] = target: T1, EhAGCK1 WT (Entamoeba histolytica AGC family kinase 1, EHI_188930), full-length recombinant His-tagged protein (Entamoeba histolytica, UniProt C4M2W0 1-433); assay: MST; His-tagged kinase labelled with RED-tris-NTA 2nd Generation dye, kept constant (50 nM by the legend); unlabelled peptide in 16 1:1 dilutions, 500 uM to 153 nM as printed; 50 mM Tris-Cl pH 8, 150 mM NaCl, 1 mM beta-ME, 5% glycerol; 25 C; Monolith NT.115, 50% LED, medium MST power; conditions: both partners purified
T1 construct: also called His-EhAGCK1; source: E. coli C41(DE3), purified (Ni2+-NTA)
T1 sequence: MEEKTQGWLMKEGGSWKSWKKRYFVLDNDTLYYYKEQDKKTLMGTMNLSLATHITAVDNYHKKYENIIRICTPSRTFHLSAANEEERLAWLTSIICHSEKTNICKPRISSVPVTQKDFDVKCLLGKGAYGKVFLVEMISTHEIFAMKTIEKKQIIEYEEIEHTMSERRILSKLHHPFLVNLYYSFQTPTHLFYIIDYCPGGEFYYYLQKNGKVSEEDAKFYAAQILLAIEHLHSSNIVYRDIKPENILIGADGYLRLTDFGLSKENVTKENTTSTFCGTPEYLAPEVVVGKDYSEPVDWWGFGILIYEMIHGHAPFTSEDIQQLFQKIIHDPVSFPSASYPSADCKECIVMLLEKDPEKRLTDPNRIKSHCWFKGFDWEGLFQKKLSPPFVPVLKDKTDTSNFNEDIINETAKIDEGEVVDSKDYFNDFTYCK

[2] = target: T2, EhAGCK2 WT (Entamoeba histolytica AGC family kinase 2, EHI_053040), full-length recombinant His-tagged protein (Entamoeba histolytica, UniProt C4M3C2 1-434); assay: as above; conditions: both partners purified
T2 construct: source: E. coli C41(DE3), purified (Ni2+-NTA)
T2 sequence: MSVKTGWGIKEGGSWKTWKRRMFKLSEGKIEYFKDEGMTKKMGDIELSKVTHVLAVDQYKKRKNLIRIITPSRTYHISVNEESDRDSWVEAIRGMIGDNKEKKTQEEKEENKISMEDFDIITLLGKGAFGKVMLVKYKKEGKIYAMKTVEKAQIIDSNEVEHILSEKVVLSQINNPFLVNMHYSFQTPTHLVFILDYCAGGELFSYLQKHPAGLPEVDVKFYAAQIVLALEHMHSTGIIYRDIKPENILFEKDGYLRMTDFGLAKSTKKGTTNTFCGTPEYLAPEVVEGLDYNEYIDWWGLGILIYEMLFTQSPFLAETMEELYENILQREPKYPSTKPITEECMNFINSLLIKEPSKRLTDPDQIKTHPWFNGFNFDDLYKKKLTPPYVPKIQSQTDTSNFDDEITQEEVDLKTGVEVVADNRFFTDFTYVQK

[3] = 50 μM HsGSK3 peptide, 250 μM ATP, 60 min, 30°C

## GRPRTTSFAESCK [HsGSK3, reference compound]
EhAGCK1 WT
  Kd: 2610 nM

B1: EhAGCK2 WT: recombinant full-length wild-type His-tagged AGC family kinase 2 of E. histolytica (protein)
chain: T2 sequence
modifications: left off: His tag, end not stated, kept
notes: recombinant full-length wild-type His-tagged AGC family kinase 2 of E. histolytica
autophosphorylation
  autophosphorylation activity (words): exhibited autophosphorylation activity
autophosphorylation; listed as EhAGCK2
  autophosphorylation activity (words): able to accept biotin-ATP as substrate and underwent autophosphorylation
HsGSK3 peptide; Mg2+, 50 μM HsGSK3 peptide, kinase 0-80 μM, 250 μM ATP
  kinase activity with HsGSK3 peptide in Mg2+ / without Mn2+ (words): phosphorylates HsGSK3 peptide
HsGSK3 peptide; MgCl2 versus MnCl2 buffer, HsGSK3 peptide
  ion preference for kinase activity: phosphorylates the peptide substrates in both MgCl2 and MnCl2 buffers; also recorded: optimal activity with Mg^2+
HsGSK3 peptide; [3]
  kinase activity with HsGSK3 peptide in presence of Mn2+: showed no increment, in fact, a small decrease in the average kinase activity
HsGSK3 peptide; S1 Table, kinase activity in MgCl2 and MnCl2 buffers, 50 μM HsGSK3 peptide, 250 μM ATP, 60 min, 30°C
  Fold change (MgCl2: MnCl2): 0.63

## SSPSSVPAAQSTTPVNVPK [EhRhoGEF peptide (from RhoGEF, EHI_008090)]
[1]
  Kd: 307 nM

## KAGGADYSFNTTSN [EhCoactosin peptide (from Coactosin, EHI_168340)]
[2]
  Kd: 413 nM

B2: KDD1: kinase-dead domain EhAGCK1 (K147A and D241A) (protein)
chain: T1 sequence with K147A, D241A
modifications: left off: His tag, end not stated, kept
autophosphorylation
  autophosphorylation activity (words): remain inactive
HsGSK3 peptide; [3]
  kinase activity with HsGSK3 peptide in presence of Mn2+: remained inactive
